# T1: podocalyxin, recombinant, O00592
# T1 chain: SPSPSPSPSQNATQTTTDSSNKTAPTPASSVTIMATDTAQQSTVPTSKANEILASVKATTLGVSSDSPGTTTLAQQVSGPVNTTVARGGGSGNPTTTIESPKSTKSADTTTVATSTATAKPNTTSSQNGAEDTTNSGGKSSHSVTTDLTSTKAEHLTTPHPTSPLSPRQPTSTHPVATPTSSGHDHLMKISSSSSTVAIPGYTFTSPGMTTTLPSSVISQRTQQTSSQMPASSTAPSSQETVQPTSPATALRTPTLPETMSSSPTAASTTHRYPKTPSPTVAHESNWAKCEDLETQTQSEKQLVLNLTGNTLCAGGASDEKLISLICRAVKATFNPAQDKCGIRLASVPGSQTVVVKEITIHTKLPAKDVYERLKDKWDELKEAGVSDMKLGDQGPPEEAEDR
# T2: CD45, recombinant, P08575
# T2 chain: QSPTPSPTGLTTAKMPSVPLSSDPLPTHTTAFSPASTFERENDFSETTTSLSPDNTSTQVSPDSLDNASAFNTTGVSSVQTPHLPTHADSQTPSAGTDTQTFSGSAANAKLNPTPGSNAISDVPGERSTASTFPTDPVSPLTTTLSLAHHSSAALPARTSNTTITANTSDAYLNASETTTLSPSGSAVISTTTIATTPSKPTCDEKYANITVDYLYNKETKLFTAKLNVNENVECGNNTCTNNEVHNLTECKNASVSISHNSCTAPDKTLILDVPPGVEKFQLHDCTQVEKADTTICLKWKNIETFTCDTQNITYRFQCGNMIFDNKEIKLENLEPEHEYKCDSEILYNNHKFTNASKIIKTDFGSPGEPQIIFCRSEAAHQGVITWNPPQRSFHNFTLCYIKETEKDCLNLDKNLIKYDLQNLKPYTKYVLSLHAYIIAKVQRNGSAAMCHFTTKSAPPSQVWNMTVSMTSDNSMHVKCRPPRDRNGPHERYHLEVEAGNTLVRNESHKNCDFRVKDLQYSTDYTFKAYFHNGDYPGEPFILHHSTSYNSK
# T3: recombinant human MUC16, Q8WXI7
# T3 chain: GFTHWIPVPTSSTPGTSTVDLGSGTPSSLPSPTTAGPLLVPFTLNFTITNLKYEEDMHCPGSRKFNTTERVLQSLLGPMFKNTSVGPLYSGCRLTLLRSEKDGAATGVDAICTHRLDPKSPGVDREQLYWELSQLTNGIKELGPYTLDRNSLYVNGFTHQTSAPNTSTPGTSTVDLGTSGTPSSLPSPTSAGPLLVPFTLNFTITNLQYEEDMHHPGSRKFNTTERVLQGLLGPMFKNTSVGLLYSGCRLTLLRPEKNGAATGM
# T4: CD43, recombinant, P16150
# T4 chain: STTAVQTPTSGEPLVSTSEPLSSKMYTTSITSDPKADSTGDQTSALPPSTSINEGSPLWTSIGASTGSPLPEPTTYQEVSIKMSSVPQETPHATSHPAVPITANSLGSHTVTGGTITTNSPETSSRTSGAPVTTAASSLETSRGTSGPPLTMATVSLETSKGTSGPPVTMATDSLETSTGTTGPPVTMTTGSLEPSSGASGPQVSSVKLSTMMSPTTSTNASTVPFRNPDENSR
# T5: C1 esterase inhibitor, human plasma-derived, P05155
# T5 chain: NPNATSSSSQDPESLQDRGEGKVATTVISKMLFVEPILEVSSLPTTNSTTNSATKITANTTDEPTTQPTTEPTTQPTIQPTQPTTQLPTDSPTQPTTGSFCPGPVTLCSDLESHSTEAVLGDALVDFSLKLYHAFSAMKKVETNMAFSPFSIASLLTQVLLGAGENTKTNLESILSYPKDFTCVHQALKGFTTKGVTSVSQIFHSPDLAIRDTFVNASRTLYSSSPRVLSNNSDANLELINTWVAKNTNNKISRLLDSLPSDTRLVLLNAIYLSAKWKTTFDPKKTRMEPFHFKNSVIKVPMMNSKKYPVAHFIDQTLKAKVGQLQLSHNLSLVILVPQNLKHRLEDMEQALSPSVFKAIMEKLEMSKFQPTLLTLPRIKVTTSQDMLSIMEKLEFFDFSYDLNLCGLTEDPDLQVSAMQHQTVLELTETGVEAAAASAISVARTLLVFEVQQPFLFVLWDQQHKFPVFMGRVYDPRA
# T6: Syncam-1, recombinant, Q9BY67
# T6 chain: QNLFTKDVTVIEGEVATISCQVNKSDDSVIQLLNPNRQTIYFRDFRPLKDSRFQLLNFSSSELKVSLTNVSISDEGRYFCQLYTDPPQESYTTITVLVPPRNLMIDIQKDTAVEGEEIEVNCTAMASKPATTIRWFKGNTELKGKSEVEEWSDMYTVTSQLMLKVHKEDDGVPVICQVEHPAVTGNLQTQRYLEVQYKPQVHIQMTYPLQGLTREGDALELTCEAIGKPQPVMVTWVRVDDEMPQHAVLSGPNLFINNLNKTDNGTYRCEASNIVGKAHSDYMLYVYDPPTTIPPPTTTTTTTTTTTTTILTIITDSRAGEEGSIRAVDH
# T7: fetuin, P12763
# T7 chain: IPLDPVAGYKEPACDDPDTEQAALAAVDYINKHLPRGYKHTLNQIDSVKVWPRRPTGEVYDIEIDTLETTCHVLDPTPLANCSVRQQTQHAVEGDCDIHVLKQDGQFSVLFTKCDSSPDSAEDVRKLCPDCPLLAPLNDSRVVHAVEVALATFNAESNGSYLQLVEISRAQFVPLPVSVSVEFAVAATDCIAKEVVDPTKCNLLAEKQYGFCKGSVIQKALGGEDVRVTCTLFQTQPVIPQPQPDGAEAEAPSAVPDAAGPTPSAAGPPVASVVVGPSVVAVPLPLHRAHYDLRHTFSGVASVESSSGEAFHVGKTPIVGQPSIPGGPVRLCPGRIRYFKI
# T8: PSGL-1, recombinant, Q14242
# T8 chain: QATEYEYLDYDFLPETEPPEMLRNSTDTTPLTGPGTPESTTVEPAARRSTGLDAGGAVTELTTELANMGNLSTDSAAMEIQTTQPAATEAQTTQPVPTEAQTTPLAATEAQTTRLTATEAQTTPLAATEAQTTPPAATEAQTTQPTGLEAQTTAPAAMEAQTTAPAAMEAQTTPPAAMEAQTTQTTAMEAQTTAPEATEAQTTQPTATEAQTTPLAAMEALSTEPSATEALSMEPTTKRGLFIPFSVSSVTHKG
# T9: synthetic glycopeptide RPPIT*QSSL
# T9 chain: RPPITQSSL
# What was measured:
# [1] = target: MUC16, native human (cell lines, cell lysates and supernatants, cancer patient ascites), Q8WXI7
# [2] = target: bovine serum albumin, P02769
# bovine serum albumin, P02769, sequence (P02769 25-607): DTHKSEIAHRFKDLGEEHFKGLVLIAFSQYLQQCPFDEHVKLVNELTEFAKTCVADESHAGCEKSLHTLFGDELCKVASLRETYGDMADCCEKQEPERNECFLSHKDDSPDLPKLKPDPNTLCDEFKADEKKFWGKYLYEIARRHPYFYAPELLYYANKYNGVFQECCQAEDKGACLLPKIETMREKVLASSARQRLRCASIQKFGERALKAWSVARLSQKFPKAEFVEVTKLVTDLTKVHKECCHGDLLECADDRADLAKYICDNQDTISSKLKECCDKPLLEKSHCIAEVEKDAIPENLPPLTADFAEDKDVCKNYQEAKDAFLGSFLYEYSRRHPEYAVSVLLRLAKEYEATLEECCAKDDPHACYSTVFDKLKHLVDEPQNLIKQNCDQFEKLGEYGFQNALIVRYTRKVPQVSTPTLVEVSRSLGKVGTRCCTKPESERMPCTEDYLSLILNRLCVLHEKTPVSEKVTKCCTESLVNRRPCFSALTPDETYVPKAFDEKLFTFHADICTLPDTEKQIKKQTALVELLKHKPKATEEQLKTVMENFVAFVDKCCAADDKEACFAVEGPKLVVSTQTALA
# [3] = target: T1, podocalyxin, recombinant, O00592
# [4] = target: T2, CD45, recombinant, P08575
# [5] = target: T3, recombinant human MUC16, Q8WXI7
# [6] = target: T4, CD43, recombinant, P16150
# [7] = target: T5, C1 esterase inhibitor, human …
# [8] = target: T6, Syncam-1, recombinant, Q9BY67
# fetuin, P12763 = target: T7, fetuin, P12763
# [9] = target: T8, PSGL-1, recombinant, Q14242
# [10] = target: T9, synthetic glycopeptide RPPIT*QSSL
protein,measurement,setting,value
"Secreted Protease of C1 Esterase Inhibitor (StcE), recombinant N-terminal His-tagged (protein) ADNNSAIYFNTSQPINDLQGSLAAEVKFAQSQILPAHPKEGDSQPHLTSLRKSLLLVRPVKADDKTPVQVEARDDNNKILGTLTLYPPSSLPDTIYHLDGVPEGGIDFTPHNGTKKIINTVAEVNKLSDASGSSIHSHLTNNALVEIHTANGRWVRDIYLPQGPDLEGKMVRFVSSAGYSSTVFYGDRKVTLSVGNTLLFKYVNGQWFRSGELENNRITYAQHIWSAELPAHWIVPGLNLVIKQGNLSGRLNDIKIGAPGELLLHTIDIGMLTTPRDRFDFAKDKEAHREYFQTIPVSRMIVNNYAPLHLKEVMLPTGELLTDMDPGNGGWHSGTMRQRIGKELVSHGIDNANYGLNSTAGLGENSHPYVVAQLAAHNSRGNYANGIQVHGGSGGGGIVTLDSTLGNEFSHEVGHNYGLGHYVDGFKGSVHRSAENNNSTWGWDGDKKRFIPNFYPSQTNEKSCLNNQCQEPFDGHKFGFDAMAGGSPFSAANRFTMYTPNSSAIIQRFFENKAVFDSRSSTGFSKWNADTQEMEPYEHTIDRAEQITASVNELSESKMAELMAEYAVVKVHMWNGNWTRNIYIPTASADNRGSILTINHEAGYNSYLFINGDEKVVSQGYKKSFVSDGQFWKERDVVDTREARKPEQFGVPVTTLVGYYDPEGTLSSYIYPAMYGAYGFTYSDDSQNLSDNDCQLQVDTKEGQLRFRLANHRANNTVMNKFHINVPTESQPTQATLVCNNKILDTKSLTPAPEGLTYTVNGQALPAKENEGCIVSVNSGKRYCLPVGQRSGYSLPDWIVGQEVYVDSGAKAKVLLSDWDNLSYNRIGEFVGNVNPADMKKVKAWNGQYLDFSKPRSMRVVYK",cleavage in ascites fluid (anti-MUC16 Western blot),[1],dose-dependent decrease in apparent molecular weight
same,cleavage of substrate (gel shift),[2],did not cleave
same,cleavage of substrate (gel shift),[3],cleaved all tested mucin-like glycoproteins
same,cleavage of substrate (gel shift),[4],cleaved all tested mucin-like glycoproteins
same,cleavage of substrate (gel shift),[5],cleaved all tested mucin-like glycoproteins
same,cleavage of substrate (gel shift),[6],cleaved all tested mucin-like glycoproteins
same,"cleavage of substrate (SDS-PAGE, glycoprotein stain)",[7],active against C11NH
same,cleavage of substrate (gel shift),[8],cleaved all tested mucin-like glycoproteins
same,cleavage of substrate (gel shift),"fetuin, P12763",did not cleave
same,cleavage of substrate (gel shift),[9],cleaved all tested mucin-like glycoproteins
same,cleavage of synthetic glycopeptide (MS),[10],StcE cleaved a synthetic peptide containing a single GalNAc
